The results in this text go back to patent US12410262B2, “Peptide conjugates of cytotoxins as therapeutics” (Cybrexa 2, Inc., priority 2019, dated 2025).

One data set has as its system HCT116. The data set can be described thus: cells. The settings on record: 96 h. Type of data set: cell-based, human. On the procedure:
Cells were plated in 96 well black walled-clear bottom plates (Griener), DLD-1 WT cells at 2500 cells per well, FaDu, and HeLa cells at 5000 cells per well, and HCT116 at 3000 cells per well, in growth media containing 10% FBS. Cells were allowed to adhere at room temperature for 60 minutes before returning to a 37 C, 5% CO2 incubator. After 24 hours, media was removed and replaced with fresh growth media containing various drug concentrations. Each drug concentration was added in triplicate. Non-drug treated controls contained growth media only. Cells were returned to the incubator. Ninety-six hours after addition of drug, cells were fixed with 4% paraformaldehyde for 20 minutes and stained with Hoechst at 1 ug/mL. The plates were imaged on a Cytation 5 auto imager (BioTek) and cells were counted using CellProfiler (http://cellprofiler.org). The percent cell growth delay was calculated and data plotted using GraphPad Prism

Data set [1] in a line: Glutathione cleavage study. The class given is in vitro ADME. The settings on record: Tris buffer with 10 mM glutathione, Glutathione Challenge (10 mM), 100 μM conjugate, Tris pH 7.5, 37° C. On the procedure: A 20 mM stock of conjugate was prepared in 100% DMSO. The stocks were subsequently diluted in 100 mM Tris, pH 7.5, to yield an intermediate dilution of 500 μM followed by an additional dilution of 1:5 in 100 mM Tris, pH 7.5 to give a final concentration of 100 μM of conjugate. 100 mM glutathione was prepared immediately prior to use in H2O and diluted 1:10 in challenge samples for a final glutathione challenge concentration of 10 mM. Samples were mixed by inversion and incubated at 37° C. for up to 24 hrs. […]
Samples were thawed and extracted as follows: 8 μL of 25% phosphoric acid followed by 117 μL of 100% acetonitrile/0.1% TFA were added to each sample, mixed and centrifuged at 13000×G for 10 minutes. The supernatant was pipetted into 0.2 mL HPLC vials and placed on a Perkin Elmer Flexar HPLC autosampler. The following table summarizes HPLC conditions:
Data was analyzed by calculating the percentage reduction of compound (area of retention time peak of […] conjugate/area of retention time peak of conjugate at time 0)×100.

A short description of the next data set: Plasma stability studies. The class given is in vitro ADME. Particulars: rat plasma, 100 μM conjugate, 37° C. On the procedure: A 20 mM stock of conjugate was prepared in 100% DMSO. The stocks were subsequently diluted in 100 mM Tris, pH 7.5 to yield an intermediate dilution of 500 μM and then diluted 1:5 directly into rat plasma to yield a final concentration of 100 μM of conjugate. Samples were mixed by inversion and incubated at 37° C. for up to 24 h. 50 μL samples were aliquoted into siliconized microfuge tubes at time 0, 4, and 24 h and immediately frozen at −80° C.
Samples were thawed and extracted as follows: 8 μL of 25% phosphoric acid followed by 117 μL of 100% Acetonitrile/0.1% TFA was added to each sample, mixed and centrifuged at 13000×G for 10 minutes. The supernatant was pipetted into 0.2 mL HPLC vials and placed on a Perkin Elmer Flexar HPLC autosampler. The following table summarizes HPLC conditions:
Data was analyzed by calculating the percentage reduction of compound (area of retention time peak of incubated conjugate/area of retention time peak of conjugate at time 0)×100.

Regarding `CC[C@@]1(O)C(=O)OCc2c1cc1n(c2=O)Cc2c-1nc1cc(F)c(C)c3c1c2[C@@H](NC(=O)O[C@H]1CCc2ccccc2[C@@H]1SSC[C@H](NC(=O)[C@H](Cc1c[nH]c2ccccc12)NC(=O)[C@H](CC(C)C)NC(=O)[C@H](CC(C)C)NC(=O)[C@H](CC(=O)O)NC(=O)[C@H](CC(C)C)NC(=O)[C@H](CC(C)C)NC(=O)[C@H](CC(C)C)NC(=O)[C@@H](NC(=O)[C@H](CC(=O)O)NC(=O)[C@@H](NC(=O)[C@@H]1CCCN1C(=O)[C@H](Cc1ccccc1)NC(=O)[C@H](CC(C)C)NC(=O)[C@H](CC(C)C)NC(=O)[C@H](CC(=O)O)NC(=O)[C@H](CC(C)C)NC(=O)[C@H](Cc1ccc(O)cc1)NC(=O)[C@H](C)NC(=O)[C@H](CCCNC(=N)N)NC(=O)[C@H](Cc1c[nH]c2ccccc12)NC(=O)[C@@H]1CCCN1C(=O)[C@H](CC(N)=O)NC(=O)[C@H](CCC(N)=O)NC(=O)[C@H](CC(=O)O)NC(=O)[C@H](CC(=O)O)NC(=O)[C@H](C)N)[C@@H](C)O)[C@@H](C)O)C(=O)NCC(=O)O)CC3` [Compound 24], the IC50 with HCT116 is 3.4 nM. For the same molecule, in data set [1], the share remaining at 4 h, 100 µM stood at 20.8% and the fraction remaining at 24 h, 100 µM worked out at 4.2%. In the data set “Plasma stability studies”, the amount remaining at 4 h, 100 µM turned out to be 87% and the share remaining at 24 h, 100 µM came to 87%.
Regarding `CC[C@@]1(O)C(=O)OCc2c1cc1n(c2=O)Cc2c-1nc1cc(F)c(C)c3c1c2[C@@H](NC(=O)O[C@@H]1CCc2ccccc2[C@H]1SSC[C@H](NC(=O)[C@H](Cc1c[nH]c2ccccc12)NC(=O)[C@H](CC(C)C)NC(=O)[C@H](CC(C)C)NC(=O)[C@H](CC(=O)O)NC(=O)[C@H](CC(C)C)NC(=O)[C@H](CC(C)C)NC(=O)[C@H](CC(C)C)NC(=O)[C@@H](NC(=O)[C@H](CC(=O)O)NC(=O)[C@@H](NC(=O)[C@@H]1CCCN1C(=O)[C@H](Cc1ccccc1)NC(=O)[C@H](CC(C)C)NC(=O)[C@H](CC(C)C)NC(=O)[C@H](CC(=O)O)NC(=O)[C@H](CC(C)C)NC(=O)[C@H](Cc1ccc(O)cc1)NC(=O)[C@H](C)NC(=O)[C@H](CCCNC(=N)N)NC(=O)[C@H](Cc1c[nH]c2ccccc12)NC(=O)[C@@H]1CCCN1C(=O)[C@H](CC(N)=O)NC(=O)[C@H](CCC(N)=O)NC(=O)[C@H](CC(=O)O)NC(=O)[C@H](CC(=O)O)NC(=O)[C@H](C)N)[C@@H](C)O)[C@@H](C)O)C(=O)NCC(=O)O)CC3` [Compound 25], the IC50 with HCT116 is 2.9 nM. Besides, the figures for the fraction remaining at 4 h, 100 µM (in data set [1]; in “Plasma stability studies”) were 42% and 103%, respectively. The share remaining at 24 h, 100 µM in data set [1] is 4.1%; in “Plasma stability studies”, 104%.
For `CC[C@@]1(O)C(=O)OCc2c1cc1n(c2=O)Cc2c-1nc1cc(F)c(C)c3c1c2[C@@H](NC(=O)O[C@@H]1COCC[C@H]1SSC[C@H](NC(=O)[C@H](Cc1c[nH]c2ccccc12)NC(=O)[C@H](CC(C)C)NC(=O)[C@H](CC(C)C)NC(=O)[C@H](CC(=O)O)NC(=O)[C@H](CC(C)C)NC(=O)[C@H](CC(C)C)NC(=O)[C@H](CC(C)C)NC(=O)[C@@H](NC(=O)[C@H](CC(=O)O)NC(=O)[C@@H](NC(=O)[C@@H]1CCCN1C(=O)[C@H](Cc1ccccc1)NC(=O)[C@H](CC(C)C)NC(=O)[C@H](CC(C)C)NC(=O)[C@H](CC(=O)O)NC(=O)[C@H](CC(C)C)NC(=O)[C@H](Cc1ccc(O)cc1)NC(=O)[C@H](C)NC(=O)[C@H](CCCNC(=N)N)NC(=O)[C@H](Cc1c[nH]c2ccccc12)NC(=O)[C@@H]1CCCN1C(=O)[C@H](CC(N)=O)NC(=O)[C@H](CCC(N)=O)NC(=O)[C@H](CC(=O)O)NC(=O)[C@H](CC(=O)O)NC(=O)[C@H](C)N)[C@@H](C)O)[C@@H](C)O)C(=O)NCC(=O)O)CC3` [Compound 20] the same measures were 7.9 nM, 5.2%, 98.7%, 8% and 95.8%.
In the data set with HCT116, `CC[C@@]1(O)C(=O)OCc2c1cc1n(c2=O)Cc2c-1nc1cc(F)c(C)c3c1c2[C@@H](NC(=O)O[C@@H]1CCC[C@H]1SSC[C@H](NC(=O)[C@H](Cc1c[nH]c2ccccc12)NC(=O)[C@H](CC(C)C)NC(=O)[C@H](CC(C)C)NC(=O)[C@H](CC(=O)O)NC(=O)[C@H](CC(C)C)NC(=O)[C@H](CC(C)C)NC(=O)[C@H](CC(C)C)NC(=O)[C@@H](NC(=O)[C@H](CC(=O)O)NC(=O)[C@@H](NC(=O)[C@@H]1CCCN1C(=O)[C@H](Cc1ccccc1)NC(=O)[C@H](CC(C)C)NC(=O)[C@H](CC(C)C)NC(=O)[C@H](CC(=O)O)NC(=O)[C@H](CC(C)C)NC(=O)[C@H](Cc1ccc(O)cc1)NC(=O)[C@H](C)NC(=O)[C@H](CCCNC(=N)N)NC(=O)[C@H](Cc1c[nH]c2ccccc12)NC(=O)[C@@H]1CCCN1C(=O)[C@H](CC(N)=O)NC(=O)[C@H](CCC(N)=O)NC(=O)[C@H](CC(=O)O)NC(=O)[C@H](CC(=O)O)NC(=O)[C@H](C)N)[C@@H](C)O)[C@@H](C)O)C(=O)NCC(=O)O)CC3` [Compound 14] showed an IC50 of 4.7 nM. In data set [1], the fraction remaining at 4 h, 100 µM is 14.9% and the fraction remaining at 24 h, 100 µM stood at 6.5%. Moreover, in “Plasma stability studies”, the amount remaining at 4 h, 100 µM is 106% and the share remaining at 24 h, 100 µM stood at 106%.
On to `CC[C@@]1(O)C(=O)OCc2c1cc1n(c2=O)Cc2c-1nc1cc(F)c(C)c3c1c2[C@@H](NC(=O)O[C@H]1CC[C@H](SSC[C@H](NC(=O)[C@H](Cc2c[nH]c4ccccc24)NC(=O)[C@H](CC(C)C)NC(=O)[C@H](CC(C)C)NC(=O)[C@H](CC(=O)O)NC(=O)[C@H](CC(C)C)NC(=O)[C@H](CC(C)C)NC(=O)[C@H](CC(C)C)NC(=O)[C@@H](NC(=O)[C@H](CC(=O)O)NC(=O)[C@@H](NC(=O)[C@@H]2CCCN2C(=O)[C@H](Cc2ccccc2)NC(=O)[C@H](CC(C)C)NC(=O)[C@H](CC(C)C)NC(=O)[C@H](CC(=O)O)NC(=O)[C@H](CC(C)C)NC(=O)[C@H](Cc2ccc(O)cc2)NC(=O)[C@H](C)NC(=O)[C@H](CCCNC(=N)N)NC(=O)[C@H](Cc2c[nH]c4ccccc24)NC(=O)[C@@H]2CCCN2C(=O)[C@H](CC(N)=O)NC(=O)[C@H](CCC(N)=O)NC(=O)[C@H](CC(=O)O)NC(=O)[C@H](CC(=O)O)NC(=O)[C@H](C)N)[C@@H](C)O)[C@@H](C)O)C(=O)NCC(=O)O)CC1)CC3` [Compound 26], for which the IC50 with HCT116 was found to be 87 nM. Further, in data set [1], the share remaining at 4 h, 100 µM was determined as 75.8% and the amount remaining at 24 h, 100 µM came to 32.1%. Besides, in “Plasma stability studies”, the fraction remaining at 4 h, 100 µM stood at 105% and the amount remaining at 24 h, 100 µM was 112%.
In the case of `CC[C@@]1(O)C(=O)OCc2c1cc1n(c2=O)Cc2c-1nc1cc(F)c(C)c3c1c2[C@@H](NC(=O)OC[C@H](SSC[C@H](NC(=O)[C@H](Cc1c[nH]c2ccccc12)NC(=O)[C@H](CC(C)C)NC(=O)[C@H](CC(C)C)NC(=O)[C@H](CC(=O)O)NC(=O)[C@H](CC(C)C)NC(=O)[C@H](CC(C)C)NC(=O)[C@H](CC(C)C)NC(=O)[C@@H](NC(=O)[C@H](CC(=O)O)NC(=O)[C@@H](NC(=O)[C@@H]1CCCN1C(=O)[C@H](Cc1ccccc1)NC(=O)[C@H](CC(C)C)NC(=O)[C@H](CC(C)C)NC(=O)[C@H](CC(=O)O)NC(=O)[C@H](CC(C)C)NC(=O)[C@H](Cc1ccc(O)cc1)NC(=O)[C@H](C)NC(=O)[C@H](CCCNC(=N)N)NC(=O)[C@H](Cc1c[nH]c2ccccc12)NC(=O)[C@@H]1CCCN1C(=O)[C@H](CC(N)=O)NC(=O)[C@H](CCC(N)=O)NC(=O)[C@H](CC(=O)O)NC(=O)[C@H](CC(=O)O)NC(=O)[C@H](C)N)[C@@H](C)O)[C@@H](C)O)C(=O)NCC(=O)O)C(C)C)CC3` [Compound 28], the IC50 in the data set with HCT116 was 1.1 nM. For the same molecule, in data set [1], the share remaining at 4 h, 100 µM turned out to be 40.5% and the amount remaining at 24 h, 100 µM was determined as 0%. Besides, in “Plasma stability studies”, the fraction remaining at 4 h, 100 µM amounted to 106% and the amount remaining at 24 h, 100 µM was 106%.
